Assay results: paper PMC6375917 (2019)

B1: His-tagged but otherwise wild type Tim50 [yeast] / Tim23 [yeast (endogenous in yeast mitochondria)] (parent complex)
chain 1: QKETKDDKPKSILTDDMLFKAGVDVDEKGQGKNEETSGEGGEDKNEPSSKSEKSRRKRQTSTDIKREKYANWFYIFSLSALTGTAIYMARDWEPQESEELKKDIDNGYTLSLMYKRFKARFNSMFTYFQEPPFPDLLPPPPPPPYQRPLTLVITLEDFLVHSEWSQKHGWRTAKRPGADYFLGYLSQYYEIVLFSSNYMMYSDKIAEKLDPIHAFVSYNLFKEHCVYKDGVHIKDLSKLNRDLSKVIIIDTDPNSYKLQPENAIPMEPWNGEADDKLVRLIPFLEYLATQQTKDVRPILNSFEDKKNLAEEFDHRVKKLKDKFYGDHKSGGNWAMTALGLGNSLGGSTKFPLDLIHEEGQKNYLMFMKMIEEEKEKIRIQQEQMGGQTFTLKDYVEGNLPSPEEQMKIQLEKQKEVDALFEEEKKKKKIAESK
chain 2: MSWLFGDKTPTDDANAAVGGQDTTKPKELSLKQSLGFEPNINNIISGPGGMHVDTARLHPLAGLDKGVEYLDLEEEQLSSLEGSQGLIPSRGWTDDLCYGTGAVYLLGLGIGGFSGMMQGLQNIPPNSPGKLQLNTVLNHITKRGPFLGNNAGILALSYNIINSTIDALRGKHDTAGSIGAGALTGALFKSSKGLKPMGYSSAMVAAACAVWCSVKKRLLEK

Variants of: B1
Experiment: pull-down (Ni-NTA agarose beads), immunoblot quantification; T, 10% of total material. B, 100% of bound material.; parent: 100; read off a plot

percent of parent [%] | Variant
~37 | chain 1 QKETKDDKPKSILTDDMLFKAGVDVDEKGQGKNEETSGEGGEDKNEPSSKSEKSRRKRQTSTDIKREKYANWFYIFSLSALTGTAIYMARDWEPQESEELKKDIDNGYTLSLMYKRFKARFNSMFTYFQEPPFPDLLPPPPPPPYQRPLTLVITLEDFLVHSEWSQKHGWRTAKRPGADYFLGYLSQYYEIVLFSSNYMMYSDKIAEKLDPIHAFVSYNLFKEHCVYKDGVHIKVLSKLNRDLSKVIIIDTDPNSYKLQPENAIPMEPWNGEADDKLVRLIPFLEYLATQQTKDVRPILNSFEDKKNLAEEFDHRVKKLKDKFYGDHKSGGNWAMTALGLGNSLGGSTKFPLDLIHEEGQKNYLMFMKMIEEEKEKIRIQQEQMGGQTFTLKDYVEGNLPSPEEQMKIQLEKQKEVDALFEEEKKKKKIAESK [chain 1 D235V]
~115 | chain 1 QKETKDDKPKSILTDDMLFKAGVDVDEKGQGKNEETSGEGGEDKNEPSSKSEKSRRKRQTSTDIKREKYANWFYIFSLSALTGTAIYMARDWEPQESEELKKDIDNGYTLSLMYKRFKARFNSMFTYFQEPPFPDLLPPPPPPPYQRPLTLVITLEDFLVHSEWSQKHGWRTAKRPGADYFLGYLSQYYEIVLFSSNYMMYSDKIAEKLDPIHAFVSYNLFKEHCVYKDGVHIKDLSKLNRDLSKVIIIDTDPNSYKLQPENAIPMEPWNGEADDKLVRLIPFLEYLATQQTKDVSPILNSFEDKKNLAEEFDHRVKKLKDKFYGDHKSGGNWAMTALGLGNSLGGSTKFPLDLIHEEGQKNYLMFMKMIEEEKEKIRIQQEQMGGQTFTLKDYVEGNLPSPEEQMKIQLEKQKEVDALFEEEKKKKKIAESK [chain 1 R296S]
~12 | chain 1 QKETKDDKPKSILTDDMLFKAGVDVDEKGQGKNEETSGEGGEDKNEPSSKSEKSRRKRQTSTDIKREKYANWFYIFSLSALTGTAIYMARDWEPQESEELKKDIDNGYTLSLMYKRFKARFNSMFTYFQEPPFPDLLPPPPPPPYQRPLTLVITLEDFLVHSEWSQKHGWRTAKRPGADYFLGYLSQYYEIVLFSSNYMMYSDKIAEKLDPIHAFVSYNLFKEHCVYKDGVHIKVLSKLNRDLSKVIIIDTDPNSYKLQPENAIPMEPWNGEADDKLVRLIPFLEYLATQQTKDVSPILNSFEDKKNLAEEFDHRVKKLKDKFYGDHKSGGNWAMTALGLGNSLGGSTKFPLDLIHEEGQKNYLMFMKMIEEEKEKIRIQQEQMGGQTFTLKDYVEGNLPSPEEQMKIQLEKQKEVDALFEEEKKKKKIAESK [chain 1 D235V, chain 1 R296S]
